{"source": "paper PMC10786891", "about": "“Massively parallel profiling of RNA-targeting CRISPR-Cas13d”", "binders": {"B1": {"name": "target 3 insU 3' of 22,insU 3' of 5 (mixed)", "RNA 1": "CACCCGUGCAAAAUUGCAGGGGUCUAAAACGACCUGAAUAUUUCAGAUCAAA", "RNA 2": "GGGAAUGGAUCCACAUCUACGAAUUCGUUUUUUGAUCUGAAAUAUUCAUGGUCUGCAGAUCGGAAGAGCACACGU"}, "B2": {"name": "target 3 A5U,C6G (mixed)", "RNA 1": "B1 RNA 1", "RNA 2": "GGGAAUGGAUCCACAUCUACGAAUUCGUUUUUGAUCUGAAAUAUUGUGGUCUGCAGAUCGGAAGAGCACACGU"}, "B3": {"name": "target 3 C1G,U7A (mixed)", "RNA 1": "B1 RNA 1", "RNA 2": "B2 RNA 2 with U45A, G46C, U47A, C51G"}, "B4": {"name": "target 3 C6A,U7C (mixed)", "RNA 1": "B1 RNA 1", "RNA 2": "B2 RNA 2 with U45C, G46A, U47A"}, "B5": {"name": "target 3 C1U,U7A (mixed)", "RNA 1": "B1 RNA 1", "RNA 2": "B2 RNA 2 with U45A, G46C, U47A, C51U"}, "B6": {"name": "target 3 insC 3' of 5,insC 3' of 2 (mixed)", "RNA 1": "B1 RNA 1", "RNA 2": "GGGAAUGGAUCCACAUCUACGAAUUCGUUUUUGAUCUGAAAUAUUCACGGUCCUGCAGAUCGGAAGAGCACACGU"}, "B7": {"name": "target 3 A9G (mixed)", "RNA 1": "B1 RNA 1", "RNA 2": "B2 RNA 2 with A43G, G46C, U47A"}, "B8": {"name": "target 3 G3C,C6G (mixed)", "RNA 1": "B1 RNA 1", "RNA 2": "B2 RNA 2 with U47A, G49C"}, "B9": {"name": "target 3 insG 3' of 6,insC 3' of 3 (mixed)", "RNA 1": "B1 RNA 1", "RNA 2": "B6 RNA 2 with A47G, C48A, U51C, C52U"}, "B10": {"name": "target 3 insG 3' of 7,insA 3' of 3 (mixed)", "RNA 1": "B1 RNA 1", "RNA 2": "B6 RNA 2 with C46G, A47C, C48A, U51A, C52U"}, "B11": {"name": "target 3 insU 3' of 22,insA 3' of 3 (mixed)", "RNA 1": "B1 RNA 1", "RNA 2": "B1 RNA 2 with U49G, G51A"}, "B12": {"name": "target 3 insC 3' of 9,insC 3' of 4 (mixed)", "RNA 1": "B1 RNA 1", "RNA 2": "B6 RNA 2 with U44C, C46U, A47C, C48A, G50C, U51G, C52U"}, "B13": {"name": "target 3 insU 3' of 3,insG 3' of 1 (mixed)", "RNA 1": "B1 RNA 1", "RNA 2": "B6 RNA 2 with C48G, G50U, C53G"}, "B14": {"name": "target 3 G4U,A18G (mixed)", "RNA 1": "B1 RNA 1", "RNA 2": "B2 RNA 2 with A34G, G46C, U47A, G48U"}, "B15": {"name": "target 3 insU 3' of 3,insA 3' of 1 (mixed)", "RNA 1": "B1 RNA 1", "RNA 2": "B6 RNA 2 with C48G, G50U, C53A"}, "B16": {"name": "target 3 G19U,U20G (mixed)", "RNA 1": "B1 RNA 1", "RNA 2": "B2 RNA 2 with U32G, G33U, G46C, U47A"}, "B17": {"name": "target 3 G4C (mixed)", "RNA 1": "B1 RNA 1", "RNA 2": "B2 RNA 2 with G46C, U47A, G48C"}, "B18": {"name": "target 3 U7A (mixed)", "RNA 1": "B1 RNA 1", "RNA 2": "B2 RNA 2 with U45A, G46C, U47A"}, "B19": {"name": "target 3 insA 3' of 21,insC 3' of 4 (mixed)", "RNA 1": "B1 RNA 1", "RNA 2": "B1 RNA 2 with U32A, U49G, G50C"}, "B20": {"name": "target 3 C1G,G4C (mixed)", "RNA 1": "B1 RNA 1", "RNA 2": "B2 RNA 2 with G46C, U47A, G48C, C51G"}, "B21": {"name": "target 3 del2,del5 (mixed)", "RNA 1": "B1 RNA 1", "RNA 2": "GGGAAUGGAUCCACAUCUACGAAUUCGUUUUUGAUCUGAAAUAUUCGGCUGCAGAUCGGAAGAGCACACGU"}, "B22": {"name": "target 3 insG 3' of 22,insA 3' of 22 (mixed)", "RNA 1": "B1 RNA 1", "RNA 2": "GGGAAUGGAUCCACAUCUACGAAUUCGUUUGAUUGAUCUGAAAUAUUCAGGUCUGCAGAUCGGAAGAGCACACGU"}, "B23": {"name": "target 3 insU 3' of 6,insU 3' of 3 (mixed)", "RNA 1": "B1 RNA 1", "RNA 2": "B6 RNA 2 with A47U, C48A, C52U"}, "B24": {"name": "target 3 U2A,G4A (mixed)", "RNA 1": "B1 RNA 1", "RNA 2": "B2 RNA 2 with G46C, U47A, G48A, U50A"}, "B25": {"name": "target 3 insU 3' of 4,insA 3' of 4 (mixed)", "RNA 1": "B1 RNA 1", "RNA 2": "B6 RNA 2 with C48G, G49U, G50A, U51G, C52U"}, "B26": {"name": "target 3 U7G,U8A (mixed)", "RNA 1": "B1 RNA 1", "RNA 2": "B2 RNA 2 with U44A, U45G, G46C, U47A"}, "B27": {"name": "target 3 C6U,A13G (mixed)", "RNA 1": "B1 RNA 1", "RNA 2": "B2 RNA 2 with A39G, G46U, U47A"}, "B28": {"name": "target 3 insA 3' of 3,insG 3' of 1 (mixed)", "RNA 1": "B1 RNA 1", "RNA 2": "B6 RNA 2 with C48G, G50A, C53G"}, "B29": {"name": "target 3 insA 3' of 21,insU 3' of 3 (mixed)", "RNA 1": "B1 RNA 1", "RNA 2": "B1 RNA 2 with U32A, U49G, G51U"}, "B30": {"name": "target 1 insC 3' of 18,insC 3' of 1 (mixed)", "RNA 1": "CACCCGUGCAAAAAUGCAGGGGUCUAAAACUGAGCGGAUAACCUCUCUAUGG", "RNA 2": "GGGAAUGGAUCCACAUCUACGAAUUCGUACCAUACGAGAGGUUAUCCGCUCACCCGAGAUCGGAAGAGCACACGU"}, "B31": {"name": "target 1 C2A,C6G (mixed)", "RNA 1": "B30 RNA 1", "RNA 2": "GGGAAUGGAUCCACAUCUACGAAUUCGUACCAUAGAGAGGUUAUCGGCUAACCGAGAUCGGAAGAGCACACGU"}, "B32": {"name": "target 1 insC 3' of 18,insA 3' of 7 (mixed)", "RNA 1": "B30 RNA 1", "RNA 2": "B30 RNA 2 with C47A, G48C, C49G, U50C, C51U, A52C, C53A"}}, "note": "Substitutions are numbered along the chain they refer to. Names may count otherwise.", "data": [{"target": "T1, EsCas13d, nuclease-dead (Eubacterium siraeum, UniProt B0MS50, R295A;H300A;R849A;H854A)", "T1 sequence": "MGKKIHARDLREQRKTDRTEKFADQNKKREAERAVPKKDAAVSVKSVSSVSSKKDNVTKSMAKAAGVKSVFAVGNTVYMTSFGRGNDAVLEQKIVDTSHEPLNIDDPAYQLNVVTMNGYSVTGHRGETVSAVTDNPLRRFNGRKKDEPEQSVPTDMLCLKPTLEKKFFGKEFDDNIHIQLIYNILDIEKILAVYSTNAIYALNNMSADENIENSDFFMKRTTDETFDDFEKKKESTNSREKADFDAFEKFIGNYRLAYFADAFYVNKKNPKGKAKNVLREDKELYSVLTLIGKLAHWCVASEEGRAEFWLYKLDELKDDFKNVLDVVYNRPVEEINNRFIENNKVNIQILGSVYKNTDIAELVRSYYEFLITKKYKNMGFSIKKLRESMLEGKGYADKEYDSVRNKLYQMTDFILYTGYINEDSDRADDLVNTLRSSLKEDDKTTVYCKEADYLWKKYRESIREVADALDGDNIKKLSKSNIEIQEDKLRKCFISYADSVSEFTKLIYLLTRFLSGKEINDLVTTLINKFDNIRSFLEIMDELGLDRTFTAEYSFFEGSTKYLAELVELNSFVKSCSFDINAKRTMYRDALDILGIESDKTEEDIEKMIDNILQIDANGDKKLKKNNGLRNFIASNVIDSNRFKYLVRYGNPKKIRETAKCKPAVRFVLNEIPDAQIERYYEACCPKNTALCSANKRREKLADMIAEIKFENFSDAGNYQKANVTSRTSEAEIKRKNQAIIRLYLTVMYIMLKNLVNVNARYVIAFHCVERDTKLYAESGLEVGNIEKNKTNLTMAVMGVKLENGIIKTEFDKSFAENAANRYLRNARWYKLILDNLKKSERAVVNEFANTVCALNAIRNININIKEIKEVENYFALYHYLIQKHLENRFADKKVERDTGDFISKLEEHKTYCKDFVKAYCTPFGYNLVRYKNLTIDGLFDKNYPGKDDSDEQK", "assay": "crRNA (strand 1, pre-loaded); Mg2+; 40 mM Tris-HCl pH 7.5, 150 mM NaCl, 6 mM MgCl2, 1 mM DTT, 0.1% Tween-20, 0.2 mg/ml BSA; 25 C; 10 min per concentration, then washed", "details": "tags: His6-TwinStrep-SUMO cleaved; N-terminal SNAP kept (SNAP-Surface 488); label: 3' end held by stalled T7 RNA polymerase", "units": {"Kd": "nM"}, "values": [{"binder": "B1", "Kd": "6.45 ± 0.55"}, {"binder": "B2", "Kd": "39 ± 4.5"}, {"binder": "B3", "Kd": "15.3 ± 4.1"}, {"binder": "B4", "Kd": "69 ± 9.5"}, {"binder": "B5", "Kd": "36.5 ± 15.5"}, {"binder": "B6", "Kd": "9.9 ± 1.35"}, {"binder": "B7", "Kd": "29.1 ± 2.85"}, {"binder": "B8", "Kd": "34.2 ± 4.7"}, {"binder": "B9", "Kd": "17.5 ± 1.3"}, {"binder": "B10", "Kd": "38 ± 5.5"}, {"binder": "B11", "Kd": "22.1 ± 2.4"}, {"binder": "B12", "Kd": "87.5 ± 28"}, {"binder": "B13", "Kd": "37.4 ± 4.85"}, {"binder": "B14", "Kd": "9.75 ± 1.45"}, {"binder": "B15", "Kd": "76.5 ± 19.5"}, {"binder": "B16", "Kd": "33.5 ± 7"}, {"binder": "B17", "Kd": "10.7 ± 1"}, {"binder": "B18", "Kd": "27.8 ± 3.6"}, {"binder": "B19", "Kd": "50.5 ± 15.5"}, {"binder": "B20", "Kd": "16.8 ± 3.25"}, {"binder": "B21", "Kd": "5.35 ± 0.45"}, {"binder": "B22", "Kd": "41.5 ± 4.5"}, {"binder": "B23", "Kd": "12.9 ± 2"}, {"binder": "B24", "Kd": "3.11 ± 0.33"}, {"binder": "B25", "Kd": "22.9 ± 3.25"}, {"binder": "B26", "Kd": "67 ± 12"}, {"binder": "B27", "Kd": "34 ± 6"}, {"binder": "B28", "Kd": "52 ± 11"}, {"binder": "B29", "Kd": "46.3 ± 13.7"}, {"binder": "B30", "Kd": "29 ± 5"}, {"binder": "B31", "Kd": "6.03 ± 0.34"}, {"binder": "B32", "Kd": "29 ± 1.6"}]}]}
